Measured values reported in patent US8003360B2, “Debaryomyces castellii phytase” (Adisseo France S.A.S., priority 2005, dated 2011).

Legend:
[1] = target: recombinant Debaryomyces castellii CBS 2923 phytase (recPhyt, expressed in Pichia pastoris), SEQ ID No. 2 (Schwanniomyces capriottii, UniProt A2TBB4); test: Hydrolysis of inositol phosphates by the recombinant phytase (chromatogram); type: biochemical; details: InsP3 compared with InsP4, InsP5 and InsP6
Experimental: (§1) Samples are taken at various times for 6 hours. The reaction is stopped by heating at 100° C. (10 minutes).
(§2) J. Agric. Food Chem. 45, 431-436; Türk, M., Sandberg, A. S., Carlsson, N. G. and Andlid, T. (2000) Inositol hexaphosphate hydrolysis by baker's yeast. Capacity, kinetics, and degradation products. J. Agric. Food Chem. 48, 100-104). […] This system makes it possible to detect the Ins P2 to Ins P6, but only the various isomers of Ins P4 and Ins P5 can be separated.
See Example 1, 7.5 and 7.6.

[2] = test system: D. castellii phytase; test: Influence of effectors on phytase activity; type: biochemical, Debaryomyces castellii
[3] = target: Debaryomyces castellii CBS 2923 phytase, native (wild type), SEQ ID No. 2 (Schwanniomyces capriottii, UniProt A2TBB4); test: Influence of effectors on the phytase activity; type: biochemical; details: Table 3
Experimental: (§3) The amount of phosphate released is measured by colorimetery. The visualizing solution, prepared extemporaneously, contains iron sulphate (380 mM, 1 volume) and ammonium heptamolybdate (12 mM, 4 volumes). The absorbance at 700 nm is measured after 30 minutes of visualization at ambient temperature (1 volume of reaction medium+1 volume of visualizing solution), using a UV/visible spectrophotometer (Beckman DU 530).

[4] = test system: Schwanniomyces occidentalis phytase; details: Segueilha et al., 1992; cited from earlier work
[5] = test system: Schwanniomyces occidentalis phytase; details: Segueilha et al., 1992; cited from earlier work; remark: listed apart in the source
[6] = Phytase activity as a function of temperature; type: biochemical; details: reaction of phytate hydrolysis
Experimental: FIG. 2: Activity of the D. castellii phytase as a function of temperature. The activity is measured at pH 4, at 37° C. for 20 minutes.
(§4) The effect of pH on the phytase activity is determined using the following buffer solutions: 200 mM glycine-HCl, pH 2-3.5; 200 mM sodium acetate-acetic acid, pH 3.5-7; and 200 mM tris-HCl, pH 7-9. The reactions are carried out at +37° C. using the phytate as substrate. The optimum temperature is determined by varying the temperature from +30° C. to +80° C. […] After the heat treatment, the mixture is cooled in ice and the phytase activity is determined using the phytate as substrate.
The optimum temperature is determined on the native phytase, by measuring the phytase activity at various temperatures: from 30 to 80° C. (FIG. 2).

[7] = Heat denaturation / heat stability of the phytase; type: physicochemical
Experimental: FIG. 3: Heat denaturation of the D. castellii phytase. […] The activity is then measured at 37° C. for 20 min.
as §4
It is denatured above 68° C., with a 70% loss of activity after one hour at 70° C. The energy for activation of the denaturation, calculated by means of the Arrhenius representation, is 606 kJ/mol.

[8] = Storage stability of the phytase at -20° C. at various pHs; type: physicochemical
[9] = pH-stability and temperature-stability of the phytase; type: physicochemical; details: for denaturation: 1 hour
Experimental: FIG. 4: Study of the pH-stability and temperature-stability. The phytase activity of D. castellii is measured after treatment of the extract at various pHs for 1 hour at two temperatures (40° C. or 60° C.). The activity is measured at pH 4.
The phytase activity is measured after incubation of the enzyme at 2 temperatures (40 and 60° C.) in buffers whose pH is between 2 and 8 (FIG. 4). […] On the other hand, in the range 3 to 7, from 80 to 100% of activity is conserved at 40° C. At 60° C., the phytase is more highly denatured at pH 3 and pH 8.

[10] = test system: Debaryomyces castellii CBS2923 phytase; test: Influence of the environment (additives, calcium, buffer molarity) on thermostability of the phytase; type: physicochemical; details: control: 250 mM acetate buffer pH 4, 1 mM calcium chloride, no additive
Experimental: At the end of treatment, the extract is cooled in water at +4° C. […] Three types of elements are tested: • sugars or sugar alcohol: sucrose, lactose, trehalose, arabinose, glycerol, • the absence of calcium, • the molarity of the buffer. […] At the end of treatment, the extract is cooled in water to +4° C. […] Materials and Methods).

[11] = Specific phytase activity by phytate hydrolysis; type: biochemical; details: native D. castellii phytase, purification steps
Experimental: The protein content is determined by the Bradford method (Bradford, M. (1976) A rapid and sensitive method for the quantification of microgram quantities of proteins utilizing the principle of protein-dye binding. Anal. Biochem. 72, 248-254). (Biorad Protein Assay Dye Reagent Concentrate, BIORAD 500-0006), the absorbance is measured at 595 nm (Beckman DU 530 UV/visible spectrophotometer). The calibration is carried out with a bovine serum albumin range.
One enzymatic unit (U) is defined as the amount of enzyme which releases one μmol of inorganic phosphate in one minute.
as §3

[12] = Hydrolysis of phytic acid followed over time (HPIC, phosphate assay); type: biochemical; details: after 300 minutes of hydrolysis, pH 4, 0.6 U/ml
Experimental: as §1, §2
The hydrolysis conditions are described in Materials and Methods. The appearance of the various Ins Pn is monitored over time. After 15 minutes of hydrolysis, Ins P6 has virtually disappeared, 4 major peaks are detected and correspond to Ins (1,2,4,5,6) P5, Ins (1,2,5,6) P4, and peaks of Ins P3, Ins P2 and Ins P1 not identified by this method (FIG. 7). The assignment of the Ins P5 and Ins P4 is confirmed by the addition of authentic inositol samples. After 120 minutes of hydrolysis, the Ins P3 and Ins P1 peaks are predominant. This could reflect a much slower rate of hydrolysis of Ins P3 compared with Ins P4, 5 and 6. […] The enzyme releases all the phosphates. The characterization of the Ins Pn fractions separated by chromatography is carried out by NMR analysis.

[13] = Hydrolysis kinetics of InsP6 followed by NMR; type: biochemical
Experimental: The time period between two spectra is 23 minutes. After an overnight period, 20 μl of enzyme were added in order to accelerate the reaction. After 16 h, the hydrolysis is complete and the spectrum characteristic of inositol is obtained (top spectrum). These kinetics clearly show the successive appearance of InsP5, of InsP4 and of InsP3.
FIG. 10: Faster kinetics making it possible to follow the complete hydrolysis of InsP6 (600 MHz, 17° C., 500 μl D2O, 3.8 mM of InsP6, pH 4.0, 5 μl of enzyme). A spectrum was recorded every 3 min for 20 h (400 spectra). After 10 hours, the hydrolysis is virtually complete. The spectra plotted correspond to one spectrum out of 10 (30 min between two spectra). Some characteristic signals are annotated.
The sample used to follow the hydrolysis by NMR is prepared from a stock solution of InsP6/phosphate buffer, 96/700 mM in D2O. […] Depending on the desired rate of hydrolysis, a greater or smaller amount of enzyme (1 to 20 μl of the stock solution at 3 U/ml) is added. The kinetics are followed at 17° C. by recording a spectrum (32 scans) every 3 minutes for 20 hours (400 spectra). Using the spectra characteristic of the various inositol phosphates determined previously, their appearance and disappearance can be followed over the entire kinetics.
Depending on the temperature (in this case 17° C.) and on the concentration of enzyme, kinetics can be slow (1 μl of enzyme) and the appearance of the first intermediates readily observed. It is under these conditions that the spectral characteristics of InsP5 were obtained and that the successive appearance of Ins P5, Ins P4 and Ins P3 is clearly seen.
In the presence of 5 μl of enzyme, the formation of Ins P2, Ins P1 and inositol is observed. In the intermediate phase, the complexity of the spectra obtained accounts for the mixture of the Ins Pns. After hours, the hydrolysis is not complete. In the presence of 20 μl of enzyme, complete hydrolysis was obtained in approximately 4 hours. […]

InsP3
affinity (in words) [1]: weaker affinity

O=C(O)c1cc[c]([Hg][Cl])cc1 [PCMB]
% activity ([2]; effector 3 mM, phytate control = 100): 94.5%
effect on phytase activity ([2]; inhibitors tested, see Table 3): absence of effect
effect on the phytase activity (in words) [3]: not sensitive
inhibition of the activity (in words) [4]: greatly inhibits
effect on phytase activity [5]: greatly inhibits

B1: D. castellii phytase: Debaryomyces castellii CBS 2923 phytase of SEQ ID No. 2, a secreted glycosylated 3-phytase (protein, listed as Debaryomyces castellii)
chain: MVSVSKLINNGLLLVGQGAYQDLASPQQASVEQYNIIRFLGGAAPYIQNKGFGISTDIPDQCTLEQVQLFSRHGERYPSTGSGKKYKAVYEKLMSYNGTFKGELAFLNDDYEYFVPDSVYLEKETSPKNSDSIYAGTTDAMKHGIAFRTKYGELFDTNDTLPVFTSNSGRVYQTSQYFARGFMGDDFSNDTVKTNIISEDADMGANSLTPRDGCFNYNENANTAIVDEYTTEYLTKALNRFKASNPGLNITEDDVSNLFGYCAYELNVKGASPMCDIFTNEEFIQYSYSVDLDDYYSNSAGNNMTRVIGSTLLNASLELLNHDKNENKIWLSFTHDTDIEIFHSAIGILIPDEDLPVDYTPFPSPYSHVGITPQGARTIIEKYACGNESYVRYVINDAVIPIKKCSSGPGFSCNLNDYNDYVAERVAGTNYVEQCGNNNASAVTFYWDYETTNYTASLINS
modifications: glycosylated
activation energy calculated according to the Arrhenius representation [6]: 9.08 kcal/mol
loss of activity ([7]; after one hour at 70° C.): 70%
energy for activation of the denaturation (Arrhenius representation) ([7]; heat denaturation): 145 kcal/mol
temperature above which the enzyme is denatured ([7]; heat denaturation study): above 68 °C
temperature up to / below which the enzyme is stable ([7]; heat denaturation study): up to 66 °C
temperature at which the enzyme is stable for one hour ([7]; in 125 mM acetate buffer, pH 4): 66 °C
temperature at which the enzyme is stable for one hour ([7]; in water): 60 °C
denaturation after storage ([8]; 21 days at -20° C., pHs of less than 5): completely denatured
denaturation after storage ([8]; 67 days at -20° C., pHs of between 5 and 7): no denaturation
activity after 1 hour of contact ([9]; pH 2 and pH 8, 40 and 60° C.): complete loss of activity
denaturation ([9]; pH 8, acetate buffer): complete
denaturation ([9]; pH 8, tris HCl buffer): 50%
activity after 1 h at 20° C. [10]: 99
activity after 1 h at 66.5° C. [10]: 47
Specific activity [11]: 156 U/mg
amount of phosphate assayed as share of the potential phosphates of the phytate molecule [12]: 100%
time after which hydrolysis of InsP6 is complete ([13]; 1.7 mM InsP6, pH 4.0, 17° C., 1 μl enzyme, 20 μl added after an overnight period): 16 h
time after which hydrolysis of InsP6 is virtually complete ([13]; 3.8 mM InsP6, pH 4.0, 5 μl of enzyme, 17° C.): ~10 h
time to complete hydrolysis of InsP6 ([13]; 20 μl of enzyme, 17° C.): approximately 4 hours
